Numbering of substitutions follows the chain as printed. Numbers in names are those of the source. Where “and” joins values, the source holds several entries; their conditions need not be identical. Equal values may be shown once. Each block holds one binder with its values, some of them ahead of it.
How the values were obtained:
[1] = molecular target: T1, cyno VISTA-ECD (cynomolgus VISTA extracellular domain with His tail) (cynomolgus macaque, UniProt Q9H7M9 33-193 (human entry)); test: SPR, pH 6.0
T1 construct: also called cyVISTA-His
T1 chain: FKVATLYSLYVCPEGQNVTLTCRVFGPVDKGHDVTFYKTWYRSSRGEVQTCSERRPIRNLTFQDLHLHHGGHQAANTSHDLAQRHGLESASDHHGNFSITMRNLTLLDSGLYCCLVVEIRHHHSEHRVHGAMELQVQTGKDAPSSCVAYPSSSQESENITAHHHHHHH

[2] = molecular target: T2, monovalent hVISTA-ECD (human VISTA extracellular domain with His tail) (human, UniProt Q9H7M9 33-193); test: SPR, pH 6.0
T2 construct: analyte flowed over captured antibody; also called huVISTA-His

[3] = molecular target: T1, cyno VISTA-ECD (cynomolgus VISTA …); test: SPR, pH 7.4
[4] = molecular target: T2, monovalent hVISTA-ECD (human VISTA …); test: SPR, pH 7.4
[5] = molecular target: T2, monovalent hVISTA-ECD (human VISTA …); test: SPR, pH 6.0, average
Protocol: Binding of several preparations of each of the '029 progeny clones and of the parent '029 antibodies, formatted as IgG1.3 antibodies, to human VISTA at pH 6.0 and 7.4 was measured by Surface plasmon resonance (SPR). SPR analysis was performed to measure koff and KD binding affinity measurements for VISTA Abs at acidic and neutral pHs using a Biacore® T100 instrument (GE Healthcare). Protein A (ThermoFisher Scientific catalog #21181) was diluted to 20 ug/ml in 10 mM sodium acetate pH 4.5 and immobilized onto flow cells of a CM5 biosensor following the manufacturer's amine coupling protocol (GE Healthcare), targeting 2,000 RU immobilization density of Protein A per flow cell. SPR experiments were conducted at 37° C. using PBST (137 mM sodium chloride, 2.7 mM potassium chloride, 10 mM phosphate buffer, 0.05% Tween® 20) running buffer at pH 7.4 and 6.0. Antibodies were diluted to 25 nM in PBST pH 7.4, and were captured across active biosensor flow cells at 5 ul/min for 60 seconds. […] Two 15 second injections of 10 mM glycine pH 1.5 were used to regenerate the Protein A capture surface between assay cycles. Rate constants ka (kₒₙ) and kd (koff) were derived from reference flow cell and 0 nM blank-subtracted sensorgrams, and were fit to a 1:1 binding model in Biacore® T200 Evaluation Software v.2.0. The affinity constant, KD was calculated as the ratio of rate constants koff/kₒₙ for each VISTA antibody. […]

[6] = molecular target: T2, monovalent hVISTA-ECD (human VISTA …); test: SPR, pH 7.4, average
Protocol: (§1) Binding of several preparations of each of the '029 progeny clones and of the parent '029 antibodies, formatted as IgG1.3 antibodies, to human VISTA at pH 6.0 and 7.4 was measured by Surface plasmon resonance (SPR). SPR analysis was performed to measure koff and KD binding affinity measurements for VISTA Abs at acidic and neutral pHs using a Biacore® T100 instrument (GE Healthcare). Protein A (ThermoFisher Scientific catalog #21181) was diluted to 20 ug/ml in 10 mM sodium acetate pH 4.5 and immobilized onto flow cells of a CM5 biosensor following the manufacturer's amine coupling protocol (GE Healthcare), targeting 2,000 RU immobilization density of Protein A per flow cell. SPR experiments were conducted at 37° C. using PBST (137 mM sodium chloride, 2.7 mM potassium chloride, 10 mM phosphate buffer, 0.05% Tween® 20) running buffer at pH 7.4 and 6.0. Antibodies were diluted to 25 nM in PBST pH 7.4, and were captured across active biosensor flow cells at 5 ul/min for 60 seconds. […] Two 15 second injections of 10 mM glycine pH 1.5 were used to regenerate the Protein A capture surface between assay cycles. Rate constants ka (kₒₙ) and kd (koff) were derived from reference flow cell and 0 nM blank-subtracted sensorgrams, and were fit to a 1:1 binding model in Biacore® T200 Evaluation Software v.2.0. The affinity constant, KD was calculated as the ratio of rate constants koff/kₒₙ for each VISTA antibody.
Some of the VISTA.4 mutants described above and new mutants were tested for binding to hVISTA, according to the methods described in Example 9. […] Antibody 41F11_VH_T28P/Y50W/S55E/D95H/L96E/P97E/Y100E; VK_A64G (P1-070976) is the only VISTA.4 derivative that is pH selective.

[7] = molecular target: T2, monovalent hVISTA-ECD (human VISTA …); test: SPR, pH 6.0; remark: listed apart in the source
Protocol: as §1
(§2) This initial campaign led to pH-independent VISTA.4 variants with near equivalent koff at pH 6 and pH 7. In order to obtain an antibody that binds to hVISTA with high affinity at pH 6.0 and low affinity at pH 7.0, a new library based on consensus sequence of pH-independent VISTA.4 variants was designed and constructed, with amino acid residues in the loops substituted for charge amino acid residues (see Example 9), and screened via yeast surface display (see Example 9). The library was analyzed as previously described (see Example 9) and selected variants were reformatted as IgG1.3 for further analysis (Tables 26 and 27). SPR analysis was conducted on these variants using the conditions previously described in Example 9.

[8] = molecular target: T2, monovalent hVISTA-ECD (human VISTA …); test: SPR, pH 7.4; remark: listed apart in the source
[9] = molecular target: T2, monovalent hVISTA-ECD (human VISTA …); test: SPR, pH 6.0; remark: listed apart in the source
[10] = molecular target: T2, monovalent hVISTA-ECD (human VISTA …); test: SPR, pH 7.4; remark: listed apart in the source
Protocol: as §1, §2

[11] = molecular target: T2, monovalent hVISTA-ECD (human VISTA …); test: SPR, pH 6.0; remark: listed apart in the source
Protocol: as §1

[12] = molecular target: T2, monovalent hVISTA-ECD (human VISTA …); test: SPR
[13] = molecular target: T2, monovalent hVISTA-ECD (human VISTA …); test: SPR, pH 7.4; remark: listed apart in the source
Protocol: as §1

[14] = molecular target: T2, monovalent hVISTA-ECD (human VISTA …); test: SPR; remark: listed apart in the source
Protocol: as §1

[15] = molecular target: BSA (Calbiochem catalog #126593) (UniProt P02769 25-607); test: SPR 25C pH 6.0 and 7.4
Protocol: (§3) The binding specificity of the '029, '761 and '767 clones to VISTA and to other high pI proteins was evaluated by SPR at neutral and acidic pH using a Biacore® T100 instrument (GE Healthcare). Protein A (ThermoFisher Scientific catalog #21181) was diluted to 20 ug/ml in 10 mM sodium acetate pH 4.5 and immobilized onto flow cells of a CM3 biosensor following the manufacturer's amine coupling protocol (GE Healthcare), targeting 800 RU immobilization density of Protein A per flow cell. SPR experiments were conducted at 25° C. using PBST (137 mM sodium chloride, 2.7 mM potassium chloride, 10 mM phosphate buffer, 0.05% Tween 20) running buffer at pH 7.4 and 6.0. Antibodies (formatted as IgG1.3 antibodies) were diluted to 50 nM in PBST pH 7.4, and were captured across active biosensor flow cells at 5 ul/min for 60 seconds. […] Two 15 second injections of 10 mM glycine pH 1.5 were used to regenerate the Protein A capture surface between assay cycles. Reference flow cell and 0 nM blank-subtracted sensorgrams were inspected using Biacore® T200 Evaluation Software v.2.0. The results are shown in […]

[16] = molecular target: avidin (ThermoFisher Scientific catalog #21128) (UniProt P02701 25-152); test: SPR 25C pH 6.0 and 7.4
Protocol: as §3

Chain of avidin (ThermoFisher Scientific catalog #21128) (P02701 25-152 limits assumed): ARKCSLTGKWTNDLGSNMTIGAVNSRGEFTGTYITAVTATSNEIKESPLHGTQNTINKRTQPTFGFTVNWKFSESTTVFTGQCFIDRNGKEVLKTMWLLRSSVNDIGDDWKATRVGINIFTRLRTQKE
Chain of BSA (Calbiochem catalog #126593) (P02769 25-607 limits assumed): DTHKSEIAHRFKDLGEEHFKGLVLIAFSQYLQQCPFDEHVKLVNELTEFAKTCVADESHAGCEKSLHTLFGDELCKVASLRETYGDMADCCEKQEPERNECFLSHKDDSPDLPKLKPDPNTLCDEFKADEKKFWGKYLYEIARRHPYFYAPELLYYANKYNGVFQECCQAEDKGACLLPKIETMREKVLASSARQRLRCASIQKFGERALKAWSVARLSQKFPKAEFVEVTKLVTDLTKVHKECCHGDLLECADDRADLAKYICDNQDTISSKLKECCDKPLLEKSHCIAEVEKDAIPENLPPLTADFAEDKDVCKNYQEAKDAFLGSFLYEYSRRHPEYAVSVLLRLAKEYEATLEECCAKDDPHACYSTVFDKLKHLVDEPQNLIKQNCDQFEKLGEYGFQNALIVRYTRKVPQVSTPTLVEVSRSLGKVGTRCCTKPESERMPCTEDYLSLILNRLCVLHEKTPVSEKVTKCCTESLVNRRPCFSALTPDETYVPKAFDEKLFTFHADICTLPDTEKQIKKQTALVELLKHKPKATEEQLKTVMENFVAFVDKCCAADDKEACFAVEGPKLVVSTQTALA

B2: P1-071801 (P1-070976_E97P) (antibody, human IgG1, kappa, V domains shown)
VH: QVQLVESGGGLVKPGGSLRLSCAASGFPFSDYYMSWIRQAPGKGLEWVSWISNSGEPIYYADSVKGRFTISRDNAKNSLYLQMNSLRAEDTAVYYCARHEPGWEFDLWGRGTLVTVSS
VL: EIVLTQSPATLSLSPGERATLSCRASQSVSSYLAWYQQKPGQAPRLLIYDASNRATGIPARFSGSGSGTDFTLTISSLEPEDFAVYYCQQRNNWPRTFGQGTKVEIKR
notes: IgG1.3
Kd [5]: 3.5 nM
koff [5]: 0.0016 s⁻¹
kon [5]: 460000 M⁻¹ s⁻¹
Kd [6]: 21 nM
koff [6]: 0.00061 s⁻¹
kon [6]: 29000 M⁻¹ s⁻¹

B3: P1-070976 (41F11_VH_T28P/Y50W/S55E/D95H/L96E/P97E/Y100E; Vk_A64G) (antibody, human IgG1, kappa, V domains shown)
VH: B2 VH with P101E
VL: B2 VL
notes: IgG1.3; also called P1-070976-7; acidic pH selective VISTA.4 progeny
Kd [1]: 24 nM
koff [1]: 0.0038 s⁻¹
kon [1]: 160000 M⁻¹ s⁻¹
Kd [2]: 13 nM
koff [2]: 0.0028 s⁻¹
kon [2]: 230000 M⁻¹ s⁻¹
Kd [7]: 15 nM
koff [7]: 0.0028 s⁻¹
kon [7]: 190000 M⁻¹ s⁻¹
Kd [5]: 23 nM
koff [5]: 0.0026 s⁻¹
kon [5]: 110000 M⁻¹ s⁻¹
Kd [3]: 5900 nM
koff [3]: 0.026 s⁻¹
kon [3]: 4400 M⁻¹ s⁻¹
Kd [4]: 2300 nM
koff [4]: 0.14 s⁻¹
kon [4]: 61000 M⁻¹ s⁻¹

B5: P1-065333 (41F11_VH_T28P/Y50W/S55E/L96E/Y100E VK_A64G) (antibody, human IgG1, kappa, V domains shown)
VH: B2 VH with H99D
VL: B2 VL
notes: IgG1.3; also called P1-065333-1; VISTA.4 pH-independent progeny
Kd [11]: 0.38 nM
kd improvement vs parent [11]: 81.7 fold
koff [11]: 0.0013 s⁻¹
kon [11]: 3.4e+06 M⁻¹ s⁻¹
KD ratio (pH 7.4/pH 6.0) [12]: 7.3
Kd [8]: 3.17 nM
koff [8]: 0.000883 s⁻¹
kon [8]: 278000 M⁻¹ s⁻¹
Kd [7]: 0.47 nM
koff [7]: 0.0018 s⁻¹
kon [7]: 3.8e+06 M⁻¹ s⁻¹
Kd [13]: 1.9 nM
kd improvement vs parent [13]: 1 fold
koff [13]: 0.00093 s⁻¹
kon [13]: 480000 M⁻¹ s⁻¹
Kd [9]: 0.434 nM
koff [9]: 0.00142 s⁻¹
kon [9]: 3.28e+06 M⁻¹ s⁻¹
Kd [5]: 0.56 nM
koff [5]: 0.0015 s⁻¹
kon [5]: 2.7e+06 M⁻¹ s⁻¹
Kd [10]: 2.2 nM
koff [10]: 0.00094 s⁻¹
kon [10]: 430000 M⁻¹ s⁻¹
Kd [6]: 3.2 nM
koff [6]: 0.00078 s⁻¹
kon [6]: 240000 M⁻¹ s⁻¹
pH 6.0/7.4 KD [14]: 0.2
pH 6.0/7.4 kd [14]: 1.4

Results, then the binder that gave them:

Kd [1]: 0.6 nM
koff [1]: 0.0016 s⁻¹
kon [1]: 2.7e+06 M⁻¹ s⁻¹
Kd [2]: 0.35 nM
koff [2]: 0.0015 s⁻¹
kon [2]: 4.2e+06 M⁻¹ s⁻¹
Kd [3]: 1.9 nM
koff [3]: 0.00068 s⁻¹
kon [3]: 350000 M⁻¹ s⁻¹
Kd [4]: 2.5 nM
koff [4]: 0.00079 s⁻¹
kon [4]: 320000 M⁻¹ s⁻¹
B1: P1-072315 (41F11_VH_T28P/Y50W/S55E/L96E/Y100E VK_A64G) (antibody, V domains shown)
VH: B2 VH with H99D
VL: EIVLTQSPATLSLSPGERATLSCRASQSVSSYLAWYQQKPGQAPRLLIYDASNRATGIPARFSGSGSGTDFTLTISSLEPEDFAVYYCQQRNNWPRTFGQGTKVEIK
notes: Same variable-region description as P1-065333 under another ID; also called P1-072315-1

Kd [8]: 4.48 nM and 4.19 nM
koff [8]: 0.00103 s⁻¹ and 0.00105 s⁻¹
kon [8]: 231000 M⁻¹ s⁻¹ and 250000 M⁻¹ s⁻¹
Kd [7]: 38 nM
koff [7]: 0.086 s⁻¹
kon [7]: 2.3e+06 M⁻¹ s⁻¹
Kd [9]: 17.4 nM and 16.6 nM
koff [9]: 0.0403 s⁻¹ and 0.0395 s⁻¹
kon [9]: 2.31e+06 M⁻¹ s⁻¹ and 2.37e+06 M⁻¹ s⁻¹
Kd [5]: 40 nM
koff [5]: 0.033 s⁻¹
kon [5]: 830000 M⁻¹ s⁻¹
Kd [10]: 1.7 nM
koff [10]: 0.00093 s⁻¹
kon [10]: 550000 M⁻¹ s⁻¹
Kd [6]: 4 nM
koff [6]: 0.00091 s⁻¹
kon [6]: 230000 M⁻¹ s⁻¹
B4: VISTA.4 A64G (41F11 Vk:A64G) (antibody, human IgG1, kappa, V domains shown)
VH: B2 VH with P28T, W50Y, E56S, H99D, E100L, E104Y
VL: B2 VL
notes: IgG1.3; also called P1-061520; P1-061520-10

binding result [15]: no binding (tested: <=10 RU, 100-10 nM)
binding result [16]: no binding (tested: <=10 RU, 100-10 nM)
B6: P1-068767.IgG1.3 (antibody, V domains shown)
VH: EVQLVESGGGLVQPGKSLRLSCAASGFTLEDYAMHWVRQAPGKGLEWVSGIDWNSENIGYADSVKGRFTISRDNAKNSLYLQMNSLRTEDTALYYCAKVPGYSGGWIDAEDDWGQGTMVTVSS
VL: not shown
notes: also called P1-068767 hIgG1.3f; VISTA.18

— patent US20220073617A1 (Five Prime, published 2022)
